{"source": "patent US20120058953A1", "about": "“COMPOSITIONS AND METHODS FOR ENHANCING APOPTOSIS” (Genentech, Inc., priority 2003, published 2012)", "origin": "cited, not measured here", "molecules": {"B1": {"name": "APO2L/TRAIL: pro-apoptotic polypeptide APO2L/TRAIL (Accession Number: TN10_HUMAN) (protein, UniProt P50591 1-281, looked up)", "Tumor necrosis factor ligand …": "MAMMEVQGGPSLGQTCVLIVIFTVLLQSLCVAVTYVYFTNELKQMQDKYSKSGIACFLKEDDSYWDPNDEESMNSPCWQVKWQLRQLVRKMILRTSEETISTVQEKQQNISPLVRERGPQRVAAHITGTRGRSNTLSSPNSKNEKALGRKINSWESSRSGHSFLSNLHLRNGELVIHEKGFYYIYSQTYFRFQEEIKENTKNDKQMVQYIYKYTSYPDPILLMKSARNSCWSKDAEYGLYSIYQGGIFELKENDRIFVSVTNEHLIDMDHEASFFGAFLVG"}}, "tested_on": "U87MG glioma cells", "conditions": "athymic mice; Fulda et al. (2002); cited from earlier work", "data": [{"molecule": "B1", "values": [{"measurement": "effect on established tumor", "result": "reduction in size of the tumor"}]}]}
